Measured values: patent US20140087995A1 (published 2014)
Numbered stars: 1 amine (or outer) side, 2 acyl side, 3 side chain; on linkers, the order of the positions; unused ones are H or OH. Bridge positions count the residues as written; N and C are the ends. Side chains are listed from the residue outwards. Ends that are not written are not given here. * marks the point of attachment. C20 diacid = O=C(O)CCCCCCCCCCCCCCCCCCC(=O)*; γGlu = O=C(O)[C@H](CCC(=O)[*:2])N[*:1]; AEEA = NCCOCCOCC(=O)O

T1: human calcitonin receptor (human, UniProt P30988 25-474)
T1 sequence (looked up): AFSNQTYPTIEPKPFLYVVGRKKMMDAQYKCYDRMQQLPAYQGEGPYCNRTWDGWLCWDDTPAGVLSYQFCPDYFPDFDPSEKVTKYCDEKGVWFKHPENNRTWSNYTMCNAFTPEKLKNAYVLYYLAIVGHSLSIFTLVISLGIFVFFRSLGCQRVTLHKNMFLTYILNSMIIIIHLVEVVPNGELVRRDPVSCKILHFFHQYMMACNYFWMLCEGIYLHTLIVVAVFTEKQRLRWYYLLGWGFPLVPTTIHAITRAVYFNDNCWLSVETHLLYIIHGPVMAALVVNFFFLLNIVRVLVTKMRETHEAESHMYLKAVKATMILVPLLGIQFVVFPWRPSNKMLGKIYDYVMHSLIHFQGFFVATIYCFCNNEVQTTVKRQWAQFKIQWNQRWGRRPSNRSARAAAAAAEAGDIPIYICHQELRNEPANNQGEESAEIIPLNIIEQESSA


Target: T1, human calcitonin receptor
Assay: cell-based or functional assay

Row | Binder | hCTR funct. EC50 [nM]
1 | K([AEEA-γGlu-C20 diacid])CNTATCATQRLAHFLRHSSPNFGAIPSSTNVGSNTY-NH2 (disulfide 2-7; N-terminus assumed; SMILES CC[C@H](C)[C@H](NC(=O)[C@H](C)NC(=O)CNC(=O)[C@H](Cc1ccccc1)NC(=O)[C@H](CC(N)=O)NC(=O)[C@@H]1CCCN1C(=O)[C@H](CO)NC(=O)[C@H](CO)NC(=O)[C@H](Cc1c[nH]cn1)NC(=O)[C@H](CCCNC(=N)N)NC(=O)[C@H](CC(C)C)NC(=O)[C@H](Cc1ccccc1)NC(=O)[C@H](Cc1c[nH]cn1)NC(=O)[C@H](C)NC(=O)[C@H](CC(C)C)NC(=O)[C@H](CCCNC(=N)N)NC(=O)[C@H](CCC(N)=O)NC(=O)[C@@H](NC(=O)[C@H](C)NC(=O)[C@@H]1CSSC[C@H](NC(=O)[C@@H](N)CCCCNC(=O)COCCOCCNC(=O)CC[C@H](NC(=O)CCCCCCCCCCCCCCCCCCC(=O)O)C(=O)O)C(=O)N[C@@H](CC(N)=O)C(=O)N[C@@H]([C@@H](C)O)C(=O)N[C@@H](C)C(=O)N[C@@H]([C@@H](C)O)C(=O)N1)[C@@H](C)O)C(=O)N1CCC[C@H]1C(=O)N[C@@H](CO)C(=O)N[C@@H](CO)C(=O)N[C@H](C(=O)N[C@@H](CC(N)=O)C(=O)N[C@H](C(=O)NCC(=O)N[C@@H](CO)C(=O)N[C@@H](CC(N)=O)C(=O)N[C@H](C(=O)N[C@@H](Cc1ccc(O)cc1)C(N)=O)[C@@H](C)O)C(C)C)[C@@H](C)O, analogue of human amylin; also called compound 69) | 1.25
2 | K([γGlu-C20 diacid])CNTATCATQRLARFLRHSSPNFGAIPSSTNVGPNTY-NH2 (disulfide 2-7; N-terminus assumed; SMILES CC[C@H](C)[C@H](NC(=O)[C@H](C)NC(=O)CNC(=O)[C@H](Cc1ccccc1)NC(=O)[C@H](CC(N)=O)NC(=O)[C@@H]1CCCN1C(=O)[C@H](CO)NC(=O)[C@H](CO)NC(=O)[C@H](Cc1c[nH]cn1)NC(=O)[C@H](CCCNC(=N)N)NC(=O)[C@H](CC(C)C)NC(=O)[C@H](Cc1ccccc1)NC(=O)[C@H](CCCNC(=N)N)NC(=O)[C@H](C)NC(=O)[C@H](CC(C)C)NC(=O)[C@H](CCCNC(=N)N)NC(=O)[C@H](CCC(N)=O)NC(=O)[C@@H](NC(=O)[C@H](C)NC(=O)[C@@H]1CSSC[C@H](NC(=O)[C@@H](N)CCCCNC(=O)CC[C@H](NC(=O)CCCCCCCCCCCCCCCCCCC(=O)O)C(=O)O)C(=O)N[C@@H](CC(N)=O)C(=O)N[C@@H]([C@@H](C)O)C(=O)N[C@@H](C)C(=O)N[C@@H]([C@@H](C)O)C(=O)N1)[C@@H](C)O)C(=O)N1CCC[C@H]1C(=O)N[C@@H](CO)C(=O)N[C@@H](CO)C(=O)N[C@H](C(=O)N[C@@H](CC(N)=O)C(=O)N[C@H](C(=O)NCC(=O)N1CCC[C@H]1C(=O)N[C@@H](CC(N)=O)C(=O)N[C@H](C(=O)N[C@@H](Cc1ccc(O)cc1)C(N)=O)[C@@H](C)O)C(C)C)[C@@H](C)O, analogue of human amylin; also called compound 65) | 9.33

More lines, now with the values ahead:

Row | hCTR funct. EC50 [nM] | Binder
3 | 5.13 | K([γGlu-C20 diacid])CNTATCATQRLARFLRHSSPNFGAIPSSTPVGSNTY-NH2 (disulfide 2-7; N-terminus assumed; SMILES CC[C@H](C)[C@H](NC(=O)[C@H](C)NC(=O)CNC(=O)[C@H](Cc1ccccc1)NC(=O)[C@H](CC(N)=O)NC(=O)[C@@H]1CCCN1C(=O)[C@H](CO)NC(=O)[C@H](CO)NC(=O)[C@H](Cc1c[nH]cn1)NC(=O)[C@H](CCCNC(=N)N)NC(=O)[C@H](CC(C)C)NC(=O)[C@H](Cc1ccccc1)NC(=O)[C@H](CCCNC(=N)N)NC(=O)[C@H](C)NC(=O)[C@H](CC(C)C)NC(=O)[C@H](CCCNC(=N)N)NC(=O)[C@H](CCC(N)=O)NC(=O)[C@@H](NC(=O)[C@H](C)NC(=O)[C@@H]1CSSC[C@H](NC(=O)[C@@H](N)CCCCNC(=O)CC[C@H](NC(=O)CCCCCCCCCCCCCCCCCCC(=O)O)C(=O)O)C(=O)N[C@@H](CC(N)=O)C(=O)N[C@@H]([C@@H](C)O)C(=O)N[C@@H](C)C(=O)N[C@@H]([C@@H](C)O)C(=O)N1)[C@@H](C)O)C(=O)N1CCC[C@H]1C(=O)N[C@@H](CO)C(=O)N[C@@H](CO)C(=O)N[C@H](C(=O)N1CCC[C@H]1C(=O)N[C@H](C(=O)NCC(=O)N[C@@H](CO)C(=O)N[C@@H](CC(N)=O)C(=O)N[C@H](C(=O)N[C@@H](Cc1ccc(O)cc1)C(N)=O)[C@@H](C)O)C(C)C)[C@@H](C)O, analogue of human amylin; also called compound 63)
4 | 0.961 | K([AEEA-γGlu-C20 diacid])CNTATCATQRLASFLRHSSPNFGAIPSSTPVGSNTY-NH2 (disulfide 2-7; N-terminus assumed; SMILES CC[C@H](C)[C@H](NC(=O)[C@H](C)NC(=O)CNC(=O)[C@H](Cc1ccccc1)NC(=O)[C@H](CC(N)=O)NC(=O)[C@@H]1CCCN1C(=O)[C@H](CO)NC(=O)[C@H](CO)NC(=O)[C@H](Cc1c[nH]cn1)NC(=O)[C@H](CCCNC(=N)N)NC(=O)[C@H](CC(C)C)NC(=O)[C@H](Cc1ccccc1)NC(=O)[C@H](CO)NC(=O)[C@H](C)NC(=O)[C@H](CC(C)C)NC(=O)[C@H](CCCNC(=N)N)NC(=O)[C@H](CCC(N)=O)NC(=O)[C@@H](NC(=O)[C@H](C)NC(=O)[C@@H]1CSSC[C@H](NC(=O)[C@@H](N)CCCCNC(=O)COCCOCCNC(=O)CC[C@H](NC(=O)CCCCCCCCCCCCCCCCCCC(=O)O)C(=O)O)C(=O)N[C@@H](CC(N)=O)C(=O)N[C@@H]([C@@H](C)O)C(=O)N[C@@H](C)C(=O)N[C@@H]([C@@H](C)O)C(=O)N1)[C@@H](C)O)C(=O)N1CCC[C@H]1C(=O)N[C@@H](CO)C(=O)N[C@@H](CO)C(=O)N[C@H](C(=O)N1CCC[C@H]1C(=O)N[C@H](C(=O)NCC(=O)N[C@@H](CO)C(=O)N[C@@H](CC(N)=O)C(=O)N[C@H](C(=O)N[C@@H](Cc1ccc(O)cc1)C(N)=O)[C@@H](C)O)C(C)C)[C@@H](C)O, analogue of human amylin; also called compound 73)
5 | 37.5 | K([AEEA-γGlu-C20 diacid])CNTATCATQRLAKFLRHSSPNFGAIPSSTPVGSNTY-NH2 (disulfide 2-7; N-terminus assumed; SMILES CC[C@H](C)[C@H](NC(=O)[C@H](C)NC(=O)CNC(=O)[C@H](Cc1ccccc1)NC(=O)[C@H](CC(N)=O)NC(=O)[C@@H]1CCCN1C(=O)[C@H](CO)NC(=O)[C@H](CO)NC(=O)[C@H](Cc1c[nH]cn1)NC(=O)[C@H](CCCNC(=N)N)NC(=O)[C@H](CC(C)C)NC(=O)[C@H](Cc1ccccc1)NC(=O)[C@H](CCCCN)NC(=O)[C@H](C)NC(=O)[C@H](CC(C)C)NC(=O)[C@H](CCCNC(=N)N)NC(=O)[C@H](CCC(N)=O)NC(=O)[C@@H](NC(=O)[C@H](C)NC(=O)[C@@H]1CSSC[C@H](NC(=O)[C@@H](N)CCCCNC(=O)COCCOCCNC(=O)CC[C@H](NC(=O)CCCCCCCCCCCCCCCCCCC(=O)O)C(=O)O)C(=O)N[C@@H](CC(N)=O)C(=O)N[C@@H]([C@@H](C)O)C(=O)N[C@@H](C)C(=O)N[C@@H]([C@@H](C)O)C(=O)N1)[C@@H](C)O)C(=O)N1CCC[C@H]1C(=O)N[C@@H](CO)C(=O)N[C@@H](CO)C(=O)N[C@H](C(=O)N1CCC[C@H]1C(=O)N[C@H](C(=O)NCC(=O)N[C@@H](CO)C(=O)N[C@@H](CC(N)=O)C(=O)N[C@H](C(=O)N[C@@H](Cc1ccc(O)cc1)C(N)=O)[C@@H](C)O)C(C)C)[C@@H](C)O, analogue of human amylin; also called compound 74)
6 | 9.07 | K([AEEA-γGlu-C20 diacid])CNTATCATQRLATFLRHSSPNFGAIPSSTPVGSNTY-NH2 (disulfide 2-7; N-terminus assumed; SMILES CC[C@H](C)[C@H](NC(=O)[C@H](C)NC(=O)CNC(=O)[C@H](Cc1ccccc1)NC(=O)[C@H](CC(N)=O)NC(=O)[C@@H]1CCCN1C(=O)[C@H](CO)NC(=O)[C@H](CO)NC(=O)[C@H](Cc1c[nH]cn1)NC(=O)[C@H](CCCNC(=N)N)NC(=O)[C@H](CC(C)C)NC(=O)[C@H](Cc1ccccc1)NC(=O)[C@@H](NC(=O)[C@H](C)NC(=O)[C@H](CC(C)C)NC(=O)[C@H](CCCNC(=N)N)NC(=O)[C@H](CCC(N)=O)NC(=O)[C@@H](NC(=O)[C@H](C)NC(=O)[C@@H]1CSSC[C@H](NC(=O)[C@@H](N)CCCCNC(=O)COCCOCCNC(=O)CC[C@H](NC(=O)CCCCCCCCCCCCCCCCCCC(=O)O)C(=O)O)C(=O)N[C@@H](CC(N)=O)C(=O)N[C@@H]([C@@H](C)O)C(=O)N[C@@H](C)C(=O)N[C@@H]([C@@H](C)O)C(=O)N1)[C@@H](C)O)[C@@H](C)O)C(=O)N1CCC[C@H]1C(=O)N[C@@H](CO)C(=O)N[C@@H](CO)C(=O)N[C@H](C(=O)N1CCC[C@H]1C(=O)N[C@H](C(=O)NCC(=O)N[C@@H](CO)C(=O)N[C@@H](CC(N)=O)C(=O)N[C@H](C(=O)N[C@@H](Cc1ccc(O)cc1)C(N)=O)[C@@H](C)O)C(C)C)[C@@H](C)O, analogue of human amylin; also called compound 75)
